Measured values published in patent publication US20230265407A1, “HUMAN RECOMBINANT ACE2-FC MUTANTS THAT DECOUPLE ANTI-SARS-COV-2 ACTIVITY FROM CARD[…]” (Northwestern University, priority 2020, published 2023).
“Also recorded” adds a separate entry of the source. Where two headings read alike, the source gives them in different places.

Legend:
ACE2 = ACE2 (Homo sapiens, UniProt Q9BYF1); conditions: cited from earlier work
[1] = tested on: Spike (SARS-CoV-2) pseudotyped lentivirus; type: cell-based
AngII = experiment: Phenylalanine Assay: ACE2 peptidase activity with AngII as substrate; conditions: phenylalanine hydrolysis, 20 min, 37° C.
Procedure: (§1) ACE2 peptidase activity measured using physiological substrates of AngII and apelin-13. […] It involves two coupled reactions, hydrolysis of the C-terminus phenylalanine residues from the substrates by ACE2 catalysis and the measurement of free amino acid phenylalanine using yeast enzyme of phenylalanine ammonia lyase (PAL) in a colorimetric assay (supplementary Figure S2).
(§2) The reactions were carried out using indicated concentrations of ACE2-Fc proteins together with either AngII or apelin-13 at indicated concentrations in reaction buffer containing 20 mM Tris-HCl, pH=7.4, 136 mM NaCl and 10 μM ZnC12. The first reaction was proceeded at 37° C. after 20 min before stopped by 80° C. heat inactivation for 5 min. The second reaction used a phenylalanine detection kit (Sigma-Aldrich, St. Louis, Mo.). 1 μL enzyme mix and 1 μL developer from the kit were added to the above reaction, which was allowed to proceed for 20 min at room temperature. Fluorescence intensity was measured at 535 nm excitation and 585 nm emission wavelength, and all reactions were performed in triplicate.
(§3) We performed Mca-APK(Dnp) measurements, alongside phenylalanine hydrolysis assays using AngII and apelin-13 as substrates to determine the enzymatic activities of the ACE2-Fc variants (FIG. 2A-C). […] The first method used an excess amount of the enzyme (100 ng) in reactions with varying concentrations of the three substrates. This would potentially detect low partial activity of enzymes.

[2] = tested on: Mca-APK(Dnp) surrogate fluorogenic substrate; conditions: 20 min reaction, compared with wild-type ACE2-Fc
Procedure: ACE2 peptidase activity measured using surrogate Mca-APK(Dnp). ACE2-Fc peptidase activity assay using surrogate fluorogenic substrate Mca-APK(Dnp) (Enzo Life Sciences, Farmingdale, N.Y.) was performed in black microtiter plates. The reaction buffer contained 50 mM 4-morpholineethanesulfonic acid, pH=6.5, 300 mM NaCl, 10 μM ZnC12, 0.01% Triton X-100 and 20 μM of Mca-APK(Dnp). The total reaction volume was 100 μL at room temperature and the duration of the reactions were 20 min. Peptidase activities were calculated as fluorescence intensity at 320 nm excitation and 420 nm emission wavelength.
In parallel, we performed ACE2 activity assays using either Mca-APK(Dnp) or synthetic Ang II peptide as substrate together with individual variants of ACE2-Fc as the enzyme. By using Mca-APK(Dnp), fluorescence signals at 328 nm excitation and 393 nm emission were recorded.

apelin-13 [3] = experiment: Phenylalanine Assay: ACE2 peptidase activity with apelin-13 as substrate; conditions: phenylalanine hydrolysis, 20 min, 37° C.
Procedure: as §1, §2, §3

Ang II = experiment: Mass spectrometry analysis of peptides generated from Ang II by ACE2-Fc; conditions: Ang II peptide as substrate
Mca-APK(Dnp) = conditions: cited from earlier work
angiotensin II = angiotensin II (Homo sapiens, UniProt Q9BYF1); conditions: cited from earlier work
apelin-13 [4] = biological target: apelin-13 (Homo sapiens, UniProt Q9BYF1); conditions: cited from earlier work
dynorphin-13 = dynorphin-13 (Homo sapiens, UniProt Q9BYF1); conditions: cited from earlier work
angiotensin I = angiotensin I (Homo sapiens, UniProt Q9BYF1); conditions: cited from earlier work
[5] = mice, up to two months; cited from earlier work
[6] = biological target: RBD of SARS-CoV-2 spike protein (Severe acute respiratory syndrome coronavirus 2, UniProt P0DTC2)
[7] = degradation of AngII by the fusion; cited from earlier work

ACE2, sequence (Q9BYF1 18-805): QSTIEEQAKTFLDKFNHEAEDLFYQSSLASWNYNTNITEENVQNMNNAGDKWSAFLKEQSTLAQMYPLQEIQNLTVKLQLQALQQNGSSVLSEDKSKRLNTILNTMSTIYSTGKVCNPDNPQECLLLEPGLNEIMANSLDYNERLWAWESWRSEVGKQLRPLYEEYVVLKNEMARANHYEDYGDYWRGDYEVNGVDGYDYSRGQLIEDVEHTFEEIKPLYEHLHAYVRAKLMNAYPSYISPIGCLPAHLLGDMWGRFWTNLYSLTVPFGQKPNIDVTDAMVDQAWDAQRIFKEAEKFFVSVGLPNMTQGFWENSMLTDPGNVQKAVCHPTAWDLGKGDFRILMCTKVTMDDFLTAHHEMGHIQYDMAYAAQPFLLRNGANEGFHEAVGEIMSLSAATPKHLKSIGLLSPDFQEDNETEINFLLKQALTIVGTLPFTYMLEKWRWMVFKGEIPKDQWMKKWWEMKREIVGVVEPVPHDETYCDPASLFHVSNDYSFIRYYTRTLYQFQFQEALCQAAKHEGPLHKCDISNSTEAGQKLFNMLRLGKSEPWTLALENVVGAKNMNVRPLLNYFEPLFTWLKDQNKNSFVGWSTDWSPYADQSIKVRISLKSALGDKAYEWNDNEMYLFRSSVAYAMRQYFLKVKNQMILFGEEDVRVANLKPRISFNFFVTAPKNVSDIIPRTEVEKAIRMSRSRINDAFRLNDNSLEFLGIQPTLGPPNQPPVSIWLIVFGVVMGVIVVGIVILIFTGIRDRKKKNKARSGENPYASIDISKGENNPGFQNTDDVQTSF
angiotensin II, sequence (Q9BYF1 18-805): as above
angiotensin I, sequence (Q9BYF1 18-805): as above
dynorphin-13, sequence (Q9BYF1 18-805): as above
apelin-13 (Homo sapiens, UniProt Q9BYF1), sequence (Q9BYF1 18-805): as above

## O=C(O)CN(CCN(CC(=O)O)CC(=O)O)CC(=O)O [EDTA]
ACE2
  inhibition of ACE2: inhibited

## CC(C)C[C@H](N[C@@H](Cc1cncn1Cc1cc(Cl)cc(Cl)c1)C(=O)O)C(=O)O [MLN-4760]
ACE2
  inhibition of ACE2: inhibited

## C[C@H](CS)C(=O)N1CCC[C@H]1C(=O)O [captopril]
ACE2
  inhibition of ACE2: not

## NCCCC[C@H](N[C@@H](CCc1ccccc1)C(=O)O)C(=O)N1CCC[C@H]1C(=O)O [linosipril]
ACE2
  inhibition of ACE2: not

## E402A: ACE2-Fc fusion with single alanine substitution of Zn2+-binding residue Glu402; loss-of-activity variant
[1]
  IC50 of pseudotyped viral transduction: 0.25 µg/mL
  inhibition of pseudotyped viral transduction (in words): could suppress the transduction of a pseudotyped virus
AngII
  peptidase activity toward AngII (Phe release): inactivate ACE2; also recorded: completely lost their enzymatic activity
AngII; listed as Glu402Ala
  peptidase activity toward AngII (Phe release): completely lack of peptidase activity
[2]
  peptidase activity toward surrogate substrate Mca-APK(Dnp): completely lost their enzymatic activity
[2]; listed as Glu402Ala
  peptidase activity toward surrogate substrate Mca-APK(Dnp): completely lack of peptidase activity
apelin-13 [3]
  peptidase activity toward apelin-13 (Phe release): inactivate ACE2; also recorded: completely lost their enzymatic activity
apelin-13 [3]; listed as Glu402Ala
  peptidase activity toward apelin-13 (Phe release): completely lack of peptidase activity

## H345A: ACE2-Fc fusion with single alanine substitution of His345
Ang II
  generation of Ang 1-7 from Ang II by mass spectrometry: full activity; also recorded: remained fully active
Ang II; listed as ACE2-Fc H345A
  generation of Ang 1-7 from Ang II by mass spectrometry: full activity

## H345L: Glasgow et al. ACE2 trap with H345L mutation at the catalytic center
Mca-APK(Dnp)
  activity against Mca-APK(Dnp) (Glasgow et al.): loss-of-activity

## H374N/H378N: Glasgow et al. ACE2 trap with double mutations of the Zn2+-binding residues
Mca-APK(Dnp)
  activity against Mca-APK(Dnp) (Glasgow et al.): loss-of-activity

## H378A: ACE2-Fc fusion with single alanine substitution of Zn2+-binding residue His378; loss-of-activity variant
[1]
  IC50 of pseudotyped viral transduction: 0.16 µg/mL
  inhibition of pseudotyped viral transduction (in words): could suppress the transduction of a pseudotyped virus
AngII
  peptidase activity toward AngII (Phe release): inactivate ACE2; also recorded: completely lost their enzymatic activity
AngII; listed as His378Ala
  peptidase activity toward AngII (Phe release): completely lack of peptidase activity
[2]
  peptidase activity toward surrogate substrate Mca-APK(Dnp): completely lost their enzymatic activity
[2]; listed as His378Ala
  peptidase activity toward surrogate substrate Mca-APK(Dnp): completely lack of peptidase activity
apelin-13 [3]
  peptidase activity toward apelin-13 (Phe release): inactivate ACE2; also recorded: completely lost their enzymatic activity
apelin-13 [3]; listed as His378Ala
  peptidase activity toward apelin-13 (Phe release): completely lack of peptidase activity

## R273A
[1]
  IC50 of pseudotyped viral transduction: 0.19 µg/mL
  inhibition of pseudotyped viral transduction (in words): could suppress the transduction of a pseudotyped virus
Ang II
  generation of Ang 1-7 from Ang II by mass spectrometry: loss of activity
Ang II; listed as ACE2-Fc R273A
  generation of Ang 1-7 from Ang II by mass spectrometry: no Ang 1-7 signal was observed

## angiotensin converting enzyme 2 [ACE2]
Angiotensin II
  Km: 2 µM
apelin-13 [4]
  Km: 6.8 µM
dynorphin-13
  Km: 5.5 µM
Angiotensin I
  Km: 6.9 µM

## wild-type ACE2-Fc: ectodomain of human ACE2 fused to the N-terminus of Fc domain of human IgG1; forms a dimer
[5]
  tolerability of repeated doses: well tolerated
[6]
  binding to SARS-CoV-2 spike RBD: highest binding affinity
[7]
  blood pressure control: blood pressure control for up to two weeks
